{
  "source": "patent US20040110923",
  "about": "“Nucleic acid binding polypeptides” (published 2004)",
  "binders": {"B1": {"name": "CXCR4-5-1 target site (dsDNA)", "DNA 1": "CCGCCCCAGCGGCGCATGCGCCGCGCTCGGAGCGTGTT", "DNA 2": "AACACGCTCCGAGCGCGGCGCATGCGCCGCTGGGGCGG"}, "B2": {"name": "CXCR4-10-1 target site (dsDNA)", "DNA 1": "B1 DNA 1", "DNA 2": "B1 DNA 2"}, "B3": {"name": "TNFR1 site 7-9 / 7-10 (dsDNA)", "DNA 1": "TGGAGGAGGAGGCCACAGGAGGCGGGAGGA", "DNA 2": "TCCTCCCGCCTCCTGTGGCCTCCTCCTCCA"}, "B4": {"name": "TNFR1 site 4-2 (dsDNA)", "DNA 1": "GTCGGATTGGTGGGTTGGGGGCACAAGGCA", "DNA 2": "TGCCTTGTGCCCCCAACCCACCAATCCGAC"}},
  "details_in_all_cases": "tags: HA tag (YPYDVPDYA) at C-terminus; label: biotin",
  "key": {"[1]": {"target": "CXCR4-5-1 six-zinc finger peptide (synthetic construct)", "sequence (chain, as listed by the source)": "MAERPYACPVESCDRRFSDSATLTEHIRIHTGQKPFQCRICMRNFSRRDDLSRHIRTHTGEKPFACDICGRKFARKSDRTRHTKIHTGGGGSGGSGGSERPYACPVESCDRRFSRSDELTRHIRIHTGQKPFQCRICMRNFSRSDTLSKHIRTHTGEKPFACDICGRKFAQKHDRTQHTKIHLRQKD", "assay": "fluorescence ELISA; 10 nM site, 50 uM ZnCl2, salmon sperm competitor, RT", "experimental": "(§1) DNA binding reactions contained the appropriate zinc finger peptide, biotinylated binding site (10 nM) and 5 μg competitor. DNA (sonicated salmon sperm DNA), in a total volume of 50 μl, which contained: 1×PBS (pH 7.0), 1.25×10⁻³ U high affinity anti-HA-Peroxidase antibody (Boehringer Mannheim), 50 μM ZnCl₂, 0.01 mg/ml BSA, and 0.5% Tween 20. Incubations are performed at room temperature for 40 minutes. Black streptavidin-coated wells are blocked with 4% marvel for 1 hour. Binding reactions are added to the streptavidin-coated wells and incubated for a further 40 minutes at room temperature. Wells are washed 5 times in 100 μl wash buffer (1×PBS (pH 7.0), 50 μM ZnCl₂, 0.01 mg/ml BSA, and 0.5% Tween 20), and finally 50 μl QuantaBlu peroxidase substrate solution (Pierce) is added to detect bound HA-tagged zinc finger peptide. ELISA signals are read in a SPECTRAmax GeminiXS spectrophotometer (Molecular Devices) and analysed using SOFTmax Pro 3.1.2 (Molecular Devices).\n(§2) Zinc finger peptides are expressed using the T7 TNT Quick Coupled Transcription/Translation System for PCR templates (Promega) and assayed for DNA-binding by fluorescence ELISA (see above; FIG. 1). Binding is plotted vertically, on a relative scale. Sequences of the DNA target sites used in each binding reaction are shown below the figure. […]"}, "[2]": {"target": "CXCR4-10-1 six-zinc finger peptide (synthetic construct)", "sequence (chain, as listed by the source)": "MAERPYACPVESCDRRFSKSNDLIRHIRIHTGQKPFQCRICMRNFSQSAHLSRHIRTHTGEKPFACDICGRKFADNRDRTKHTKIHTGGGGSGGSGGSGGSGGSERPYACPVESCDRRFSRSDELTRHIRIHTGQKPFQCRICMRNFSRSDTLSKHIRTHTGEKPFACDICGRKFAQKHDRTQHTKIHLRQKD", "assay": "fluorescence ELISA; 10 nM site, 50 uM ZnCl2, salmon sperm competitor, RT", "experimental": "as §1, §2"}, "[3]": {"target": "T1, TNFR1-7-9 six-zinc finger peptide (synthetic construct)", "T1 sequence (chain, as listed by the source)": "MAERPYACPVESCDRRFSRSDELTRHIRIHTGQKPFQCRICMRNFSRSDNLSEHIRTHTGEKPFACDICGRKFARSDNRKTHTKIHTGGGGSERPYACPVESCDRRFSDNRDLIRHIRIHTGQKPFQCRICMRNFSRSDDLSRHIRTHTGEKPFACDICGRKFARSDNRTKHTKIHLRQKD", "assay": "fluorescence ELISA; 50 uM ZnCl2, RT", "experimental": "as §1\n(§3) Zinc finger peptides are expressed using the T7 TNT Quick Coupled Transcription/Translation System for PCR templates (Promega) and assayed for DNA-binding by fluorescence ELISA, as described above in Examples 4 and 6. Sequences of the DNA target sites used in each binding reaction are shown below FIG. 3A."}, "[4]": {"target": "TNFR1-4-2 six-zinc finger peptide (synthetic construct)", "sequence (chain, as listed by the source)": "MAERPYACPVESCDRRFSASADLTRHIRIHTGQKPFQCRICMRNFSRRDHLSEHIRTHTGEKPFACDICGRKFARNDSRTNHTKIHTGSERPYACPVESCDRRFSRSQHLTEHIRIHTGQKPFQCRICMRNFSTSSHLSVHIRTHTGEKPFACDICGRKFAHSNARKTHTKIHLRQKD", "assay": "fluorescence ELISA; 50 uM ZnCl2, RT", "experimental": "as §1, §3"}, "[5]": {"target": "TNFR1-9-12 six-zinc finger peptide (synthetic construct)", "sequence (chain, as listed by the source)": "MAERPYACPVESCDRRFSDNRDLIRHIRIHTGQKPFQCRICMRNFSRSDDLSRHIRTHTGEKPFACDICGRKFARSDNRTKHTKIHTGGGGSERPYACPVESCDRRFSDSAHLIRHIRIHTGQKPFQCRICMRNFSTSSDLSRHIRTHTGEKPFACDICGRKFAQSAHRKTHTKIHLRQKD", "assay": "fluorescence ELISA; control site; signal only in figure, text states specific binding", "experimental": "as §1, §3"}, "[6]": {"target": "T1, TNFR1-7-9 six-zinc finger peptide", "assay": "fluorescence ELISA; control site; signal only in figure, text states specific binding", "experimental": "as §1, §3"}},
  "data": [
    {"binder": "B1", "values": [
      {"measurement": "binding result", "setting": "[1]", "result": "binds"}
    ]},
    {"binder": "B2", "values": [
      {"measurement": "binding result", "setting": "[2]", "result": "binds"}
    ]},
    {"binder": "B3", "values": [
      {"measurement": "binding result", "setting": "[3]", "result": "binds"}
    ]},
    {"binder": "B4", "values": [
      {"measurement": "binding result", "setting": "[4]", "result": "binds"},
      {"measurement": "binding result", "setting": "[5]", "result": "no binding"},
      {"measurement": "binding result", "setting": "[6]", "result": "no binding"}
    ]}
  ]
}
